This note sets out measurements from patent US20040202659A1 (ASAT AG APPLIED SCIENCE AND TECHNOLOGY, published 2004).

Test [1] deals with T1, PDG-B.
T1 construct: human anti-GPIIb/IIIa Fab, as phab or as biotinylated recombinant Fab; lambda light chain; also called Group B phab clones; Group B antibody phab clones
Nature of the test: specificity assay.

In test [2] the target is T2, PDG-A.
T2 construct: lambda light chain; also called Group A phab clones; Group A autoantibody phab clones
Kind of test: specificity assay.

For test [3], the target named is T1, PDG-B. Kind of test: flow cytometry, biotinylated PDG-B on platelets with AI-B phab.
Procedure: This was determined by means of flow-cytometric analysis. […] 10,000 events were counted in a FACScan appliance and the mean value of the fluorescence (±SD) was recorded.

T2 sequence (VH, as listed by the source, chain 1 of 2): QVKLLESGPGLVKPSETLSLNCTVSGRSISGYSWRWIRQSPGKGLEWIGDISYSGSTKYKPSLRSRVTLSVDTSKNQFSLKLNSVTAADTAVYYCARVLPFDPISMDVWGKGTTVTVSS
T2 sequence (VL, as listed by the source, chain 2 of 2): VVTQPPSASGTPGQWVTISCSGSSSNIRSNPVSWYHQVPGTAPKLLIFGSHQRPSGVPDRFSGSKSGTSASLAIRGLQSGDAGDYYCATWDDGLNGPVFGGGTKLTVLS

B1: AI-B14 (Fab, V domains shown)
VH: QVKLLESGGGVVQPGRSLRLSCAASGFTFSDYGMHWVRQAPGKGLEWVAAISYDGSNKYYADSVKGRFSISRDNSNNTLYLQMSTLRAEDTAVYFCARDSETAIAAAGRFDIWGQGTMVTVSS
notes: phab; also called A1-B14; AI-14
In the case of B1, the binding result in test [1] was “binds”; in test [2], “no binding”.

B2: AI-B17 (Fab, V domains shown)
VH: B1 VH
notes: phab; also called A1-B17
On to B2, for which the binding result is “binds” in test [1] and “no binding” in test [2].

B3: AI-B18 (Fab, V domains shown)
VH: QVKLLESGAEVKKPGSSVMVSCKASGGTFSSHTISWVRQAPGQGLEWMGGITPIFGTVNYAQKFQGRVTITADEPTSTAYMELRSLTSDDSGIYYCAREDGTTVPSQPLEFWGQGTRVTVSS
notes: phab; also called A1-B18
For B3, the binding result in test [2] is listed as “no binding”. Besides, the “inhibition of the binding of PDG-B to platelets” value (shortened to “inhibition”) in test [3] was more than 60%.

B4: AI-B34 (Fab, V domains shown)
VH: B3 VH
notes: phab; also called A1-B34
On to B4, for which the binding result in test [2] is “no binding”.

B5: AI-B40 (Fab, V domains shown)
VH: B3 VH
notes: phab; also called A1-B40
In the case of B5, the binding result in test [2] is on record as “no binding”.

B6: AI-B24 (Fab, V domains shown)
VH: QVKLLESGGGLVQPGGSLRLSCSASGFTFNKYAIHWVRQAPGKGLEYVSAISSNGGNTYYADSVKGRFTISRDNSKNTVYLQMSSLRAEDTAVYYCVRGSGSYLGYYFDYWGQGTLVTVSS
VL: VVTQPPSVSVAPRQTATITCGGYKIGSKSVHWYQQKPGQAPVLVVYEDSYRPSEIPERFSGSNSGNMATLTITGVEAGDEADYYCQVWDNTNDQTIFGGGTKLTVLR
notes: phab; also called A1-B24
With B6, in test [2], the binding result is recorded as “no binding”. In test [3], the “inhibition” value was more than 60%.

B7: AI-B38 (Fab, V domains shown)
VH: QVKLLESGAEVKKPGASVKVSCKVSGYTLTELSMHWVRQAPGKGLEWMGGFDPEDGETIYAQKFQGRVTMTEDTSTDTAYMELSSLRSEDTAVYYCETGLRSYNYGRNLDYWGQGTLVTVSS
notes: phab; also called A1-B38
Take B7: in test [2], the binding result is “no binding”. The “inhibition” value in test [3] was more than 60%.
